Data from a protein production outcome set (Wang et al. 2014).

Assay: label from the status in PepcDB records
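Also: failed if final PepcDB status was selected cloned or expressed and not failed if soluble or beyond.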

Sequence	protein production
MLFSSASFVPIVRRMSRPTILPAYILATLPLVMALLATAVSIGTGDEVVNFFRQYRQAHPALTACMQVITDFGNPLLYLVYGAIFFRARKRGDRHDMRFVAVYIVVQLLVSFLAVRILKIGFGMPRPGTEGPAIPFSFKGVYNSFPSGHTTEIVGAVVPLAWRCKALLPTLALGIYMGIVGYSRIYLGMHHITDVFAGLLLGSVAAWIIHRLADRTPS	failed
MASHISLKQLKVFTTITQHKTLTAASDSLFLSKAAVSMALSELEKQIGHHLFDRVNNRLILNQEGQKLLPLADELLNRAKDIESIFDGDQALSGQLRIGASDTIGNQVAPYLLSEFRQQTNHRSQSLFISNSAQICDMLTDYELDIALIEGKTLHPELQSTQFSEDEMCVICAPDYPAAHEGPVNLTELENSEWILREAGSGSREFFMRVVAPRLEHWHEAFQLNTTEALINSVSAGLGLGCLSRLSAEPAIRDGRVKLLDMPLDMKRRFWLLVHKEKYQSPLLKTFIEFCQDWERPTNLPLGNKSAK	failed
MADEMMVKELEEVVVRFSGDSGDGMQLAGNIFSNVSATVGNDICTFPDYPADIRAPQGSLTGVSGFQVHVGASKIFTPGDHCHVLVAMNPAALKTQIKFCKPQGLVITDSDSFGEKDLEKAQFKTGNPFEEMGITQQVLEVPISSMCKESLKNSGLDNKAMLRCKNMFALGLVCWLFNRNLSAAEKMLNEKFAKKPEIAAANIKVLNDGYNYGANTHASTSTYKIESKTPKAAGLYTDINGNKATSYGLIAAAEKAGLELYLGSYPITPATDILHELAKHKSLGVKTVQCEDEIAGCASAVGAAFAGDLAVTTTSGPGVCLKSEAMNLAVIAELPLVVVNVQRGGPSTGMPTKSEQTDLLQALYGRNGESPMPVIAATSPTNCFDAAYMAAKIALEHMTPVVLLTDAFIANGSAAWKLPNMDEYPAINPPYVTPDMIGTWTPFQRNEKTGVRYWAVPGTEGFMHRIGGLEKSSETGVISTEPENHQKMTLLRQAKVDKIADSIPEQEVQGDADADLLVVGWGGTYGHLYSAVEHMRKNGKKVALAHFQYINPLPKNTAEILKKYKKIVVAEQNLGQFAGYLRMKVPGLNISQFNQVKGQPFVTRELVEAFTKLLEE	not failed
MELTALDKLEIMELAARFEMSLDKEDVENYLATFASDGALQGFWGIAKGKEELRQGFYAMLDTFARGKRHCSSNAIIQGNYDEATMESYLTVVNREDLNRAGSAFVKDQVRKINGKWYLILRQIEVDPSLPLLQQSQQAGANA	not failed
PDHKMSDVDTRHVAGLMRINHTGEVCAQALYQGQALTAKLPKVRKAMEHAAEEEIDHLVWCEQRIHQLGSHTSVLNPLFYGLSFGIGAVAGVISDRVSLGFVAATEDQVCKHLGEHLEQLPIEDGKSRAILEQMLSDEEHHAE	failed
MHRLRNLREDVSDGSLGHGGGGLMYDVVVVGAGPAGSMAAKTAAEQGLKVLLVEKRQEIGTPVRCAEGISRESIEKFFEVDKKWIAAEVTGAKIYAPNKTEIVMSEEMAGNEVGYVLERKIFDRHVARLAAKAGAEVYVKTAMVDFERKDGKVKVKLRRLGEDWEVETKILIGADGVESKIGRKAGIIKTLKLNEVESCAQYLMTGLDIDESYTYFYLGRELAPGGYAWIFPKGNGSANVGIGVLPKMAERTAKEYLDAFIEKEGIEGKIVEFVAGAVPVYGEIETAVADNIMLAGDAAYHADPITGGGIANALSAGYYAGKVAAEAVQKNDFSADFLRRYDELWKNDFGKKLRRNKKLQLKFIDMDDALLNKLAGAIAGKNLREMSVAAIVKELLKAHPKLLWDLKDLFLEHHHHHH	not failed
MEFCPKCKSLMIYQGDKLVCRKCGYEKEADDSEELVIKVERNKEDVPVIEGENLKTLPTTKAICPACGHNEAFWWLRQLRAADESEVRFFRCTKCGKTWREYD	failed
MNLLLIVVFGAILEIAVWIGIAQFISGWYVFFWFIIAFFIGLSMLRSSTSSIMPQLQQMQMSGQMGNDPAVTKKLAVAMAGFLLMLPGVVSDILALLILIPGVQTLFRNALMKTLAKRQQAMMNKMMGGMMGGDVGGNAGQNPFEDLMRQMQNMQNQQGASPYNDSNVIDGEAREVKPDQKQIEHKDK	failed
MMRVKFNGKELDTDFKTSLEFFENISKNENDVWIINGFATKENIALNENDELFCIEKNTLPPKDALDAMMRARHTPKLHDKLKNGRVAVCGLGGLGSHIAINLARSGVGYLKLIDFDVIEPSNLNRQAYRVSDLGKFKTEALKEQISEINPYISVEICTLKIDEDNLESLFKDIDIVCEAFDSAIAKAMIAQNFHRFYKDGILICASGLAGYGDSNSIQTRKIAKNFYVCGDLVNGAKLGNGLMAPRVNICAGHQSNLVLELLANKELEHHHHHH	not failed
METESIKLDVQVTTTSQDPSLGLLSTVIITLDRDLEEYDENVDSIKSLGSYPDSSTPDESLIILKLPTSEPDYIYLTLRSKLKDHLHDHVLSEEIADQIFEAQLGTQSIDQFPFQQPLFMLVSVKLTQKLYTYAPCNASPLATDLTKRAK	failed
MNNTQQFSLSMRLFHWAMAALVISMLAAGLLMVRSLEPWQLSILTVHKAFGVVAAALVIARLMNRLFHQIPALPGDLSSLQTFVAKASHWLLYLLLFAMPISGYLMQYFAGRPIDVFGWFRLPSALTVNIENYAIFRELHGWLAIALMALVALHVAAALHHHFIRKDTVLKSML	failed
RAKLMEERETSLKDSVEVAFDAVRLIANNPNLSEAEAKQQVKAVLTNIRYGSDGYFFAYDAQGTNLVHPIQPELVGQNLWQLQDERGDFLIQ	failed
MFRSSRRQAAFDFDLLMPETPARRTARAANPDRDVVDAEFVTIKENRVRQPGNDNRGAARRQMVKPSVTIGALGLAFIGWLDRRLSRLSADAYSALVAGLAIFVFVCSGGLSVVVPETSAVAASVNPLAISHVTITPQEAGGMDILLINGIVENNGGNLEEVPALRADLFAAKGQLVASMVIEPPVKEMQPGFSHGFSAKLRHPGGKTPEIKLSFVEAGASAR	failed
SLSTVELSGTVVKQGYLAKQGHKRKNWKVRRFVLRKDPAFLHYYDPSKEENRPVGGFSLRGSLVSALEDNGVPTGVKGNVQGNLFKVITKDDTHYYIQASSKAERAEWIEAIKKLT	not failed
MIVPYSVEDILKDGCFLERAEIDRLLDRLRTKKNLILQGPPGTGKTWLAKRLAFALMGQKDDSKVRAVQFHPNLSYEDFVRGWRPTGEGKLSLADGVFMEAIKAASKDPSSKFVVVIEEINRGNPAQIFGELLTLLEAGKRTPNEALELCYPDADGKRRPVHIPENLYVVGTMNIADRSLALVDLALRRRFAFVGLEPRLGQVWRDWVVKECAVDPLEHHHHHH	failed
MAGPTLLKESGPREVFCGLTSIVWLHRRMPDAFFLVVGSRTCAHLIQSAAGVMIFAEPRFGTAILSERDLAGLADAHEELDRVARELLQRRPEIRTLFLVGSCPSEVIKLDLARAAERLNDELQGRVRVVNYSGSGIETTFTQGEDGALAALVPLLPSSAERQLLLVGTLADAVEDRLIHLFGRLGIDRVRSLPPRQSTALPPVGPGTTVLLTQPFLTDTARLLRNRGATVLTAPFPLGAEGSRRWMEAAAQAFEVAPSHVATVLDPLMERARIALEPHREVLAGKRIFLLPESQLELPLARFLQRECGMELVEVGTPYLNREQMAEELALLPEGTPVMEGQHVELQLDRVRDSAPDLVVCGMGLANPLEAEGIATKWSIELVFSPIHGIDQAGDLAELFSRPLRRRQLIHPGLHPTQPDQPVHA	failed
MQKNLDSLLENLRAEIDALDNELSDLLDKRLEIALKIALIKQESPIYCPKREQEILKRLSQRDFKHLNGEILTGFYTEVFKISRKFQENALKELKK	failed
MSLAHERSSGIYLVAASAVLWSTAGLFVRMADMDMWSMVAWRSAFTFLALGAFFLLRNRFARQRSSMSFGFPGIAGCLVSAIAAITYIASLRWTTVANVMTIYATLPFIVAGIAFVCLRDRVTYRFVIAGCLAFVGVLISVGAAVSHQDMLGIFAAFIMTTGCATQIVIAKRFPDMDTTLMTALAALICICVALPLMQFEIPAPTQIIACALYGVLTTAFGYIFLLQGSRRINAGEAGLISMLDVILGPVWVWLFYNEVISPIVLTGGGIVIMSVAWYLAGDRRAATAP	failed
MNMSTDRIERRIVLHAPRSRVWRALTNADEFGAWFRVDLAGQAFEAGRRVEGRITYPGYEHLVLQMRIERIEPEHHFSYRWHPAAVDPAVDYSQEAPTLVVFELADAEGGPLLTVVESGFDALPVERRADAFRMNSGGWDEQMTNIAAHVDAR	failed
MSPIHVRAHPGDVAERVLLPGDPGRAEWIAKTFLQNPRRYNDHRGLWGYTGLYKGVPVSVQTTGMGTPSAAIVVEELVRLGARVLVRVGTAGAASSDLAPGELIVAQGAVPLDGTTRQYLEGRPYAPVPDPEVFRALWRRAEALGYPHRVGLVASEDAFYATTPEEARAWARYGVLAFEMEASALFLLGRMRGVRTGAILAVSNRIGDPELAPPEVLQEGVRRMVEVALEAVLEV	not failed
MLGSIFTASAVVMILLGLGMLTVFTQRLVDQKIDIASSEIDRARVIVEEQITASGASTSVQARVNSARAALSSLGTSGGTETNAAYDPVVLVNNDDLVVSPEGYQIPERLRYFVSENQVSYQFSSIDQGDGSSYQALIIGTPTESDIPNLQVYLVFSMESDESSLALMRGLLSAALLIVVVLLVGIAWLATQQVTAPVRSASRIAERFAQGKLRERMVVEGEDEMARLAVSFNAMAESLSAQITKLEEYGNLQRQFTSDVSHELRTPLTTVRMAADLIADSEDELSPGARRASQLMNRELDRFESLLSDLLEISRHDAGVAELSTALHDVRIPVRSALEQVQHLATELDVELLVNLPEEAINIQGDSRRIERIIRNLLANAIDHSKGLPVELKVADNVDAVAIVVIDHGVGLKPGQDELVFNRFWRADPSRVRHSGGTGLGLAISREDAMLHGGNLDAAGTIGVGSIFRLVLPKEPHGNYREAPIPLIAPETPWEGEQQ	failed
RKIFTNKCERAGCRQREMMKLTCERCSRNFCIKHRHPLDHDCSGEGHPTS	not failed
MKTTQRTAGWYHVMAAVTVMIWGTTFVATKVLIKYGLSPVDILFYRFLLAYICIWFFSPRVLLAKSWQDELRFVGLGLCGGSLYFVAENTALGMTLASNVSLIICTTPILTALLAPFFYKGDKLKARLIGGSLMALIGVGLVVFNGSFILQLSPAGDILTLIAALMWAFYCLLLRRMNTHYPTLFITRKVFFYGLVTLLPLFLVYPLQTDIHILFRPVVALNLLFLGVIASMLCYIMWNTAVKQLGVVCATSYIYVVPLITLLTSAIVIDETITIVALLGSALILSGVYIAERGVNLKK	failed
IAALSRDITPQQDGSVIVDASITIRHLNRMMGWSLPLIGPRTLSGLIIEHLGYIPPPDSCLVIDHYHIEILRVSDNMIRGVKMIKTN	failed
MKEIRYLVRQRLPFRGHDESDESANRGNFLELVKYTVGQNEVISKVVLENAPKNNQMVFDEMSEPLIPETRDPVPSSFLLLDLILDYPVVWQQTVQSNVSDKEQMAVVFRFVDKHGTVKERFIGLIHVKETSSASLKCAIDSLFAKRGLSMKQLRGQGYDGANNMKGEFNWLRSLILRENSSAYYIHCFAHQLQLVVVAVAKKQFEVGDFFDMISALLNVVGASCKGKDRIREEYLKEIEEGINQGEIKTGKGLNQELSLQRPGNTRWGTHYTTLHRLAHLFSVIIKLLEFVEEEGTDSTKRRQANGLLKYFNTFDFAFYLQLMLLLLGLTNSLSVALQKKDQDILNPMSLVKSTKQQLCKLRDDGWDSLVNEVFSFCKKHDIELVIMDGEFVNPRNPRKRSNMTNFHHYQVECFYTILDMQIQEFNDRFDEVNTELLSCVASLSPIDSFHEFDQLKVLRLSEFYPQDFTHVDRRSLEHQLGLYIDNIREDERFAN	failed
MAKEKTLDDLFHDTLKDIYYAERKILKALPKMARAAQAPELKAAFEKHKEQTETHVERLQQVFEMIGKRAQGKTCEAIEGIVAEGEEIMDEFKGTAALDAGLISAAQAVEHYEISRYGTLKTWAKTIGLKDAVSLLDATLKEEVVTDEDLTKLAMAQVNKKAA	not failed
